From PMC11648230, “Structure–function analysis of tRNA t^6A-catalysis, assembly, and thermostability of Aquifex aeolicus TsaD2B2 tetramer in complex with TsaE” (The Journal of Biological Chemistry, 2024)

What was measured:
[1] = biological target: the molecule itself; assay: SEC; co-purified TsaD–TsaB complexes and variants; elution profiles compared with one another (tetramer against dimer); Superdex 200, after Ni-NTA
[2] = biological target: T1, Thermotoga maritima TsaDB dimer variant (Thermotoga maritima, UniProt Q9WXZ2 1-327; Q9WZX7 2-206, E20A | D21A | L22A | E24A | S26A | Y27A | T28A | E30A | K31A); assay: native gel or EMSA; native agarose-glycine gel (1.6%), 15 μg TsaD2B2 or variant and two-fold TsaE; gel and samples with 1 mM ATP and 2 mM MgCl2; conditions: both partners purified
T1 construct: TsaD, Thermotoga maritima, UniProt Q9WXZ2; TsaB, Thermotoga maritima, UniProt Q9WZX7; Preformed complex of m11 and m13; also called T. maritima TsaDB; TmTsaDB; source: E. coli BL21 (DE3) or Rosetta pLysS, co-expressed, purified (Ni-NTA, SEC); copies: 1 + 1
T1 sequence (Q9WXZ2 whole entry, stated change not applied, one chain of several): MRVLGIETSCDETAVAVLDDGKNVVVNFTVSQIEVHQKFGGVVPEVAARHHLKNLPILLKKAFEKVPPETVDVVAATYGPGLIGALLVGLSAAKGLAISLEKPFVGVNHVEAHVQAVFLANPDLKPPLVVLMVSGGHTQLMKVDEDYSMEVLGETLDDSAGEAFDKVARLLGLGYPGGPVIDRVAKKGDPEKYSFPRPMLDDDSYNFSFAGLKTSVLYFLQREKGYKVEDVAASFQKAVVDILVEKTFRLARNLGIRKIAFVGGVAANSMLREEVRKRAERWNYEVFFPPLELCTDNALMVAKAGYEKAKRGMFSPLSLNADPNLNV

Binder	binding result [1]	binding result [2]
Thermotoga maritima TsaB (natural protein, TsaB, Thermotoga maritima, UniProt Q9WZX7; also called TmTsaB; source: E. coli BL21 (DE3) or Rosetta pLysS, co-expressed with TsaD (pET21a–BC14), purified (Ni-NTA, SEC)) NVLALDTSQRIRIGLRKGEDLFEISYTGEKKHAEILPVVVKKLLDELDLKVKDLDVVGVGIGPGGLTGLRVGIATVVGLVSPYDIPVAPLNSFEMTAKSCPADGVVLVARRARKGYHYCAVYLKDKGLNPLKEPSVVSDEELEEITKEFSPKIVLKDDLLISPAVLVEESERLFREKKTIHYYEIEPLYLQKSIAELNWEKKKRG	binds	
Aquifex aeolicus TsaE (enzyme, UniProt O67011 1-133, looked up, TsaE, Aquifex aeolicus, UniProt O67011; Monomer by SEC; also called AaTsaE; YjeE; source: E. coli BL21 (DE3) or Rosetta pLysS, purified (Ni-NTA, SEC)) MELLKEVILESEEDTYKLAEEIAQLLKGSEVICLRGTLGAGKTTFVKALAKALKVKNPSAVRSPTFTLVNEYETDKGKLIHIDLYRVPDFDYSEFIGEGILAVEWEERDKPCDIILEIEILDENKRKVRIYRK		binds
